Experimental data from US20110135636A1 (SYMPHOGEN A S, published 2011).
Positions count from the first letter of the chain named. Blank lines part the entries; values can stand above or below the binder they belong to.

Experiments:
[1] = biological target: T1, recombinant human EGFR extracellular domain with 6xHis (human, UniProt P00533 25-645); experiment: SPR competition, competitor 1024
T1 construct: In-house produced; also called 6xHis EGFR ECD; soluble human EGFR ECD; not shown: 6xHis tag
Experimental: (§1) SPR analysis was performed on a Biacore 3000 machine containing four flow cells. A CM5 Biacore chip was conjugated with 10,000 Resonance units (Ru) polyclonal anti-His antibody to flow cells 1-4 according to the manufacturer's instructions. […] Immediately after antigen injection the maximal binding of the Anti-EGFR mAb without competition was established in each flow cell during a reference run. Briefly 5 μl antibody at a concentration of 40 μg/ml was injected over all flow cells with captured EGFR followed by stripping of the antibody/antigen complex with a low pH acid wash (10 sec. contact time with 10 mM Glycine-HCl, pH2). After the determination of Anti-EGFR antibody maximal binding to each flow cell, a competition run was performed during the same Biacore cycle. Flow cells were first saturated with EGFR ECD antigen followed by injection of different reference antibodies or Anti-EGFR antibodies into separate flow cells using the same antigen saturating conditions as outlined above. This step was immediately followed by a second injection of Anti-EGFR antibody over the flow cell saturated with EGFR antigen and competition antibody to minimize the dissociation of either antigen or blocking antibody. Then the antibody/antigen complexes were stripped off with a low pH acid wash (10 sec. contact time with 10 mM Glycine-HCl, pH 2) and the whole cycle beginning with the reference run was repeated with a new Anti-EGFR antibody. The degree of inhibition of tested Anti-EGFR antibodies were determined by comparing the Ru max value of the individual Anti-EGFR antibody before and after competition by introduction of report points recorded two seconds before and after injection of each sample.

[2] = biological target: T1, recombinant human EGFR extracellular …; experiment: SPR competition, competitor 1042
Experimental: as §1

[3] = biological target: T1, recombinant human EGFR extracellular …; experiment: SPR competition, competitor 1208
Experimental: as §1

[4] = biological target: T1, recombinant human EGFR extracellular …; experiment: SPR competition, competitor 1254
Experimental: as §1

[5] = biological target: T1, recombinant human EGFR extracellular …; experiment: SPR competition, competitor 1257
Experimental: as §1

[6] = biological target: T1, recombinant human EGFR extracellular …; experiment: SPR competition, competitor 1260
Experimental: as §1

[7] = biological target: T1, recombinant human EGFR extracellular …; experiment: SPR competition, competitor 1261
Experimental: as §1

[8] = biological target: T1, recombinant human EGFR extracellular …; experiment: SPR competition, competitor 1277
Experimental: as §1

[9] = biological target: T1, recombinant human EGFR extracellular …; experiment: SPR competition, competitor 1284
Experimental: as §1

[10] = biological target: T1, recombinant human EGFR extracellular …; experiment: SPR competition, competitor 1308
Experimental: as §1

[11] = biological target: T1, recombinant human EGFR extracellular …; experiment: SPR competition, competitor 1320
Experimental: as §1

[12] = biological target: T1, recombinant human EGFR extracellular …; experiment: SPR competition, competitor 1344
Experimental: as §1

[13] = biological target: T1, recombinant human EGFR extracellular …; experiment: SPR competition, competitor 1347
Experimental: as §1

[14] = biological target: T1, recombinant human EGFR extracellular …; experiment: SPR competition, competitor 1449
Experimental: as §1

[15] = biological target: T2, Cynomolgus EGFR extracellular domain (Cynomolgus monkey (Macaca fascicularis), UniProt P55245 25-645 (rhesus entry)); experiment: ELISA on cynomolgus EGFR ECD (Example 10)
T2 construct: Cloned without signal peptide; also called Cynomolgus rEGFR ECD; Cynomolgus EGFR ECD
Experimental: To verify that tested Anti-EGFR antibodies bound equally well to both Human and Cynomolgus EGFR ECD and accordingly warranting toxicology studies in Cynomolgus monkeys, serial four fold dilutions of antibodies beginning from 1 μg/ml were tested by ELISA for binding to recombinant Human and Cynomolgus EGFR ECD proteins. […] ELISA wells were coated with 50 μl/well of full length EGFR at a concentration of 1 μg/ml in PBS overnight at 4° C. The next morning wells were washed twice with PBS-T and blocked for one hour with 100 μl PBS-T-1% BSA at room temperature, followed by wash twice in PBS-T. Next 50 μl of serially diluted Anti-EGFR antibodies and control antibodies were added to wells and incubated for one hour at room temperature. After antibody incubation wells were washed five times with PBS-T, followed by incubation with 50 μl/well Streptavidin-HRP secondary reagent diluted 1:3000 in blocking buffer and incubation at room temperature for 30 min. Finally wells were washed five times with PBS-T and plates were developed by adding 50 μL/well TMB substrate and incubated at room temperature. After incubation the reaction was stopped by addition of 1 M H₂SO₄; 100 μl/well and plates were read at OD 450 nm.

[16] = biological target: T1, recombinant human EGFR extracellular …; experiment: SPR competition, competitor Erbitux
Experimental: as §1

[17] = biological target: T1, recombinant human EGFR extracellular …; experiment: SPR competition, competitor 1030corr
Experimental: as §1

[18] = biological target: T1, recombinant human EGFR extracellular …; experiment: SPR competition, competitor 992 corr
Experimental: as §1

[19] = biological target: T1, recombinant human EGFR extracellular …; experiment: SPR competition, competitor Vectibix
Experimental: as §1

[20] = biological target: T1, recombinant human EGFR extracellular …; experiment: SPR (BIAcore 2000); IgG captured on anti-human Fc, soluble monovalent EGFR ECD injected
Experimental: Kinetic analysis of the full length IgG antibodies of the invention was performed on a BIAcore 2000, employing an assay as described in (Canziani, Klakamp, et al. 2004, Anal. Biochem, 325:301-307) allowing measurement of monovalent affinities of whole IgG molecules against soluble antigen. […] The chip surface was regenerated in between cycles by stripping the captured antibody/antigen complexes with a 10 second injection of 100 mM H₃PO₄. […] The association rate constant (ka) and dissociation constant (kd) were evaluated globally from the generated sensograms with the BIA evaluation software 4.1 provided by the manufacturer.

[21] = biological target: T1, recombinant human EGFR extracellular …; experiment: SPR competition, competitor Ab-1
Experimental: as §1

[22] = biological target: T1, recombinant human EGFR extracellular …; experiment: SPR competition, competitor Ab-3
Experimental: as §1

[23] = biological target: T1, recombinant human EGFR extracellular …; experiment: SPR competition, competitor Ab-5
Experimental: as §1

[24] = biological target: T1, recombinant human EGFR extracellular …; experiment: SPR competition, competitor Ab-10
Experimental: as §1

[25] = biological target: T1, recombinant human EGFR extracellular …; experiment: SPR competition, competitor Ab-11
Experimental: as §1

[26] = biological target: T1, recombinant human EGFR extracellular …; experiment: SPR competition, competitor ICR10
Experimental: as §1

[27] = biological target: T3, wild type full length EGFR purified from A431 cells (human, UniProt P00533 25-1210); experiment: competition ELISA, competitor Ab-1; parameters: concentration or dose not given beside the values
T3 construct: mature; Bought; coated on ELISA wells; also called full length EGFR receptor antigen; Sigma E3641
Experimental: (§2) The ELISA was adapted from the descriptions published in Ditzel et al, 1995, The Journal of Immunology, Vol 154, Issue 2 893-906.
(§3) An epitope blocking ELISA was performed by diluting full length EGFR receptor antigen to 0.5 μg/ml in PBS; and coating 50 μl/ELISA well overnight at 4° C. […] Finally wells were washed four times with PBS-T and plates were developed by adding 50 μl/well TMB and read at 620 nm every 5-15-30 min. The degree of inhibition was calculated from the formula: % inhibition=(1−(OD competition/OD no competition (PBS)))×100.

[28] = biological target: T3, wild type full length EGFR purified …; experiment: competition ELISA, competitor Ab-2; parameters: concentration or dose not given beside the values
Experimental: as §2, §3

[29] = biological target: T3, wild type full length EGFR purified …; experiment: competition ELISA, competitor Ab-3; parameters: concentration or dose not given beside the values
Experimental: as §2, §3

[30] = biological target: T3, wild type full length EGFR purified …; experiment: competition ELISA, competitor Ab-5; parameters: concentration or dose not given beside the values
Experimental: as §2, §3

[31] = biological target: T3, wild type full length EGFR purified …; experiment: competition ELISA, competitor Ab-10; parameters: concentration or dose not given beside the values
Experimental: as §2, §3

[32] = biological target: T3, wild type full length EGFR purified …; experiment: competition ELISA, competitor Ab-11; parameters: concentration or dose not given beside the values
Experimental: as §2, §3

[33] = biological target: T3, wild type full length EGFR purified …; experiment: competition ELISA, competitor ICR10; parameters: concentration or dose not given beside the values
Experimental: as §2, §3

[34] = biological target: T1, recombinant human EGFR extracellular …; experiment: SPR competition, competitor Erbitux; remark: listed apart in the source
Experimental: as §1

[35] = biological target: T1, recombinant human EGFR extracellular …; experiment: SPR competition, competitor Vectibix; remark: listed apart in the source
Experimental: as §1

% inhibition [1]: 6%
% inhibition [2]: 29%
% inhibition [3]: 108%
% inhibition [4]: 102%
% inhibition [5]: 7%
% inhibition [6]: 0%
% inhibition [7]: 6%
% inhibition [8]: 99%
% inhibition [9]: 6%
% inhibition [10]: -2%
% inhibition [11]: 6%
% inhibition [12]: 4%
% inhibition [13]: 3%
% inhibition [14]: 5%
binding result [15]: binds
% inhibition [16]: 44%
% inhibition [17]: 82%
% inhibition [18]: 106%
% inhibition [19]: 96%
Kd [20]: 12.7 nM
koff [20]: 0.001 s⁻¹
kon [20]: 81000 M⁻¹ s⁻¹
t1/2 [20]: 11.3 min
B1: antibody 1254 (antibody, human IgG1, kappa, V domains shown)
VH: EVQLVESGGGLVKPGGSLKLSCAASGFAYSTYDMSWVRQTPEKRLEWVAYISSGGDAAYYPDTVKGRFTISRDNAKNTLYLQMSSLKSEDTAMYYCARSRYGNYGDAMDYWGQGTSVTVSS
VL: DVVMTQTPLSLPVSLGDQASISCRSSQSLVHSNGNTYLHWYLQKPGQSPKLLLYKVSNRFSGVPDRFSGSGSGTDFTLKISRVESEDLGVYFCSQNTHVYTFGGGTKLEIKR
notes: Chimeric IgG1 kappa; also called mAb 1254

binding result [15]: binds
B2: antibody 1277 (antibody, human IgG1, kappa, V domains shown)
VH: EVQLVESGGGLVKPGESLKLSCAASGFAFSYSDMSWVRQTPEKRLEWVAYMSSAGDVTFYSDTVKGRFTISRDNAKNTLYLQVSSLKSEDTAIYYCVRHRDVAMDYWGQGTSVTVSS
VL: B1 VL with L53I, S85A, N96S, Y100P
notes: Chimeric IgG1 kappa; also called clone 1277

% inhibition [21]: 14%
% inhibition [22]: 0%
% inhibition [23]: 10%
% inhibition [2]: 83%
% inhibition [14]: 93%
% inhibition [24]: -4%
% inhibition [25]: -8%
% inhibition [26]: -6%
binding result [15]: binds
% inhibition [27]: 24%
% inhibition [28]: 81%
% inhibition [29]: -29%
% inhibition [30]: -7%
% inhibition [31]: 15%
% inhibition [32]: 7%
% inhibition [33]: -7%
% inhibition [34]: 107%
% inhibition [16]: 107%
% inhibition [35]: 110%
% inhibition [18]: 25%
% inhibition [19]: 103%
B3: antibody 1042 (antibody, human IgG1, kappa, V domains shown)
VH: QVQLQQPGAELVKPGASVKLSCKASGYTFTSHWMHWVQQRPGQGLEWIGEIHPSNGRTNYNEKFKNKATLTVDKSPSTAYMQLSSLTSEDSAVYYCARYYGYDDAMDYWGQGTSVTVSS
VL: DIVMTQAAFSNPVTLGTSASISCRSSKSLLHSNGITYLYWYLQKPGQSPQLLIYQMSNLASGVPDRFSSSGSRTDFTLRISRVEAEDVGVYYCAQNLELPYTFGGGTKLEIKR
notes: Chimeric IgG1 kappa; RA- left out of the VH entry
